Experimental data published in the Human Domainome abundance scans (Beltran et al. 2025).
± gives the uncertainty stated by the source.

B1: Lysine-specific demethylase 2B, residues 656 to 722; numbered along this chain, Q8NHM5 (parent)
chain: LPHTAVCLVCGEAGKEDTVEEEEGKFNLMLMECSICNEIIHPGCLKIKESEGVVNDELPNCWECPKC

Variants of: B1
Test: abundance fitness (aPCA) (normalised: wild type 0, dead -1); higher = more abundant; growth selection in yeast, the domain comes from the species named
Conditions: Homo sapiens

Variant | abundance fitness
LPTTAVCLVCGEAGKEDTVEEEEGKFNLMLMECSICNEIIHPGCLKIKESEGVVNDELPNCWECPKC [H3T] | 0.147 ± 0.087
LPVTAVCLVCGEAGKEDTVEEEEGKFNLMLMECSICNEIIHPGCLKIKESEGVVNDELPNCWECPKC [H3V] | 0.234 ± 0.089
LPWTAVCLVCGEAGKEDTVEEEEGKFNLMLMECSICNEIIHPGCLKIKESEGVVNDELPNCWECPKC [H3W] | -0.572 ± 0.12
LPYTAVCLVCGEAGKEDTVEEEEGKFNLMLMECSICNEIIHPGCLKIKESEGVVNDELPNCWECPKC [H3Y] | -0.328 ± 0.25
LPHAAVCLVCGEAGKEDTVEEEEGKFNLMLMECSICNEIIHPGCLKIKESEGVVNDELPNCWECPKC [T4A] | -0.889 ± 0.26
LPHCAVCLVCGEAGKEDTVEEEEGKFNLMLMECSICNEIIHPGCLKIKESEGVVNDELPNCWECPKC [T4C] | -0.395 ± 0.2
LPHDAVCLVCGEAGKEDTVEEEEGKFNLMLMECSICNEIIHPGCLKIKESEGVVNDELPNCWECPKC [T4D] | -0.2 ± 0.21
LPHEAVCLVCGEAGKEDTVEEEEGKFNLMLMECSICNEIIHPGCLKIKESEGVVNDELPNCWECPKC [T4E] | -0.448 ± 0.16
LPHGAVCLVCGEAGKEDTVEEEEGKFNLMLMECSICNEIIHPGCLKIKESEGVVNDELPNCWECPKC [T4G] | -0.623 ± 0.17
LPHIAVCLVCGEAGKEDTVEEEEGKFNLMLMECSICNEIIHPGCLKIKESEGVVNDELPNCWECPKC [T4I] | -0.288 ± 0.46
LPHKAVCLVCGEAGKEDTVEEEEGKFNLMLMECSICNEIIHPGCLKIKESEGVVNDELPNCWECPKC [T4K] | -0.964 ± 0.48
LPHLAVCLVCGEAGKEDTVEEEEGKFNLMLMECSICNEIIHPGCLKIKESEGVVNDELPNCWECPKC [T4L] | -1.21 ± 0.39
LPHMAVCLVCGEAGKEDTVEEEEGKFNLMLMECSICNEIIHPGCLKIKESEGVVNDELPNCWECPKC [T4M] | -0.878 ± 0.24
LPHNAVCLVCGEAGKEDTVEEEEGKFNLMLMECSICNEIIHPGCLKIKESEGVVNDELPNCWECPKC [T4N] | -0.205 ± 0.25
LPHQAVCLVCGEAGKEDTVEEEEGKFNLMLMECSICNEIIHPGCLKIKESEGVVNDELPNCWECPKC [T4Q] | -0.729 ± 0.36
LPHRAVCLVCGEAGKEDTVEEEEGKFNLMLMECSICNEIIHPGCLKIKESEGVVNDELPNCWECPKC [T4R] | -0.979 ± 0.23
LPHSAVCLVCGEAGKEDTVEEEEGKFNLMLMECSICNEIIHPGCLKIKESEGVVNDELPNCWECPKC [T4S] | -0.345 ± 0.16
LPHVAVCLVCGEAGKEDTVEEEEGKFNLMLMECSICNEIIHPGCLKIKESEGVVNDELPNCWECPKC [T4V] | -0.947 ± 0.28
LPHWAVCLVCGEAGKEDTVEEEEGKFNLMLMECSICNEIIHPGCLKIKESEGVVNDELPNCWECPKC [T4W] | -0.889 ± 0.23
LPHTCVCLVCGEAGKEDTVEEEEGKFNLMLMECSICNEIIHPGCLKIKESEGVVNDELPNCWECPKC [A5C] | 0.07 ± 0.3
LPHTDVCLVCGEAGKEDTVEEEEGKFNLMLMECSICNEIIHPGCLKIKESEGVVNDELPNCWECPKC [A5D] | -0.726 ± 0.34
LPHTEVCLVCGEAGKEDTVEEEEGKFNLMLMECSICNEIIHPGCLKIKESEGVVNDELPNCWECPKC [A5E] | -0.696 ± 0.29
LPHTGVCLVCGEAGKEDTVEEEEGKFNLMLMECSICNEIIHPGCLKIKESEGVVNDELPNCWECPKC [A5G] | -0.338 ± 0.17
LPHTKVCLVCGEAGKEDTVEEEEGKFNLMLMECSICNEIIHPGCLKIKESEGVVNDELPNCWECPKC [A5K] | 0.038 ± 0.17
LPHTLVCLVCGEAGKEDTVEEEEGKFNLMLMECSICNEIIHPGCLKIKESEGVVNDELPNCWECPKC [A5L] | -0.004 ± 0.13
LPHTMVCLVCGEAGKEDTVEEEEGKFNLMLMECSICNEIIHPGCLKIKESEGVVNDELPNCWECPKC [A5M] | 0.195 ± 0.088
LPHTNVCLVCGEAGKEDTVEEEEGKFNLMLMECSICNEIIHPGCLKIKESEGVVNDELPNCWECPKC [A5N] | -0.051 ± 0.26

Variant | abundance fitness
LPHTPVCLVCGEAGKEDTVEEEEGKFNLMLMECSICNEIIHPGCLKIKESEGVVNDELPNCWECPKC [A5P] | 0.006 ± 0.13
LPHTQVCLVCGEAGKEDTVEEEEGKFNLMLMECSICNEIIHPGCLKIKESEGVVNDELPNCWECPKC [A5Q] | -0.095 ± 0.22
LPHTRVCLVCGEAGKEDTVEEEEGKFNLMLMECSICNEIIHPGCLKIKESEGVVNDELPNCWECPKC [A5R] | 0.073 ± 0.14
LPHTSVCLVCGEAGKEDTVEEEEGKFNLMLMECSICNEIIHPGCLKIKESEGVVNDELPNCWECPKC [A5S] | -0.192 ± 0.15
LPHTTVCLVCGEAGKEDTVEEEEGKFNLMLMECSICNEIIHPGCLKIKESEGVVNDELPNCWECPKC [A5T] | 0.138 ± 0.16
LPHTWVCLVCGEAGKEDTVEEEEGKFNLMLMECSICNEIIHPGCLKIKESEGVVNDELPNCWECPKC [A5W] | 0.055 ± 0.17
LPHTYVCLVCGEAGKEDTVEEEEGKFNLMLMECSICNEIIHPGCLKIKESEGVVNDELPNCWECPKC [A5Y] | 0.625 ± 0.35
LPHTAACLVCGEAGKEDTVEEEEGKFNLMLMECSICNEIIHPGCLKIKESEGVVNDELPNCWECPKC [V6A] | -0.557 ± 0.25
LPHTADCLVCGEAGKEDTVEEEEGKFNLMLMECSICNEIIHPGCLKIKESEGVVNDELPNCWECPKC [V6D] | -0.293 ± 0.49
LPHTAECLVCGEAGKEDTVEEEEGKFNLMLMECSICNEIIHPGCLKIKESEGVVNDELPNCWECPKC [V6E] | -0.378 ± 0.19
LPHTAGCLVCGEAGKEDTVEEEEGKFNLMLMECSICNEIIHPGCLKIKESEGVVNDELPNCWECPKC [V6G] | -0.64 ± 0.12
LPHTAHCLVCGEAGKEDTVEEEEGKFNLMLMECSICNEIIHPGCLKIKESEGVVNDELPNCWECPKC [V6H] | 0.409 ± 0.22
LPHTAICLVCGEAGKEDTVEEEEGKFNLMLMECSICNEIIHPGCLKIKESEGVVNDELPNCWECPKC [V6I] | 0.145 ± 0.088
LPHTAKCLVCGEAGKEDTVEEEEGKFNLMLMECSICNEIIHPGCLKIKESEGVVNDELPNCWECPKC [V6K] | 0.194 ± 0.1
LPHTALCLVCGEAGKEDTVEEEEGKFNLMLMECSICNEIIHPGCLKIKESEGVVNDELPNCWECPKC [V6L] | -0.004 ± 0.1
LPHTANCLVCGEAGKEDTVEEEEGKFNLMLMECSICNEIIHPGCLKIKESEGVVNDELPNCWECPKC [V6N] | -0.085 ± 0.23
LPHTAPCLVCGEAGKEDTVEEEEGKFNLMLMECSICNEIIHPGCLKIKESEGVVNDELPNCWECPKC [V6P] | -0.124 ± 0.14
LPHTAQCLVCGEAGKEDTVEEEEGKFNLMLMECSICNEIIHPGCLKIKESEGVVNDELPNCWECPKC [V6Q] | -0.541 ± 0.3
LPHTARCLVCGEAGKEDTVEEEEGKFNLMLMECSICNEIIHPGCLKIKESEGVVNDELPNCWECPKC [V6R] | -0.285 ± 0.14
LPHTASCLVCGEAGKEDTVEEEEGKFNLMLMECSICNEIIHPGCLKIKESEGVVNDELPNCWECPKC [V6S] | -0.094 ± 0.17
LPHTATCLVCGEAGKEDTVEEEEGKFNLMLMECSICNEIIHPGCLKIKESEGVVNDELPNCWECPKC [V6T] | 0.12 ± 0.13
LPHTAWCLVCGEAGKEDTVEEEEGKFNLMLMECSICNEIIHPGCLKIKESEGVVNDELPNCWECPKC [V6W] | -0.759 ± 0.2
LPHTAVALVCGEAGKEDTVEEEEGKFNLMLMECSICNEIIHPGCLKIKESEGVVNDELPNCWECPKC [C7A] | -0.691 ± 0.28
LPHTAVDLVCGEAGKEDTVEEEEGKFNLMLMECSICNEIIHPGCLKIKESEGVVNDELPNCWECPKC [C7D] | -0.902 ± 0.34
LPHTAVRLVCGEAGKEDTVEEEEGKFNLMLMECSICNEIIHPGCLKIKESEGVVNDELPNCWECPKC [C7R] | -0.908 ± 0.31
LPHTAVTLVCGEAGKEDTVEEEEGKFNLMLMECSICNEIIHPGCLKIKESEGVVNDELPNCWECPKC [C7T] | -0.491 ± 0.41
LPHTAVYLVCGEAGKEDTVEEEEGKFNLMLMECSICNEIIHPGCLKIKESEGVVNDELPNCWECPKC [C7Y] | -1.04 ± 0.2

Variant | abundance fitness
LPHTAVCDVCGEAGKEDTVEEEEGKFNLMLMECSICNEIIHPGCLKIKESEGVVNDELPNCWECPKC [L8D] | -0.573 ± 0.24
LPHTAVCEVCGEAGKEDTVEEEEGKFNLMLMECSICNEIIHPGCLKIKESEGVVNDELPNCWECPKC [L8E] | -0.584 ± 0.23
LPHTAVCGVCGEAGKEDTVEEEEGKFNLMLMECSICNEIIHPGCLKIKESEGVVNDELPNCWECPKC [L8G] | -0.588 ± 0.17
LPHTAVCHVCGEAGKEDTVEEEEGKFNLMLMECSICNEIIHPGCLKIKESEGVVNDELPNCWECPKC [L8H] | -0.281 ± 0.3
LPHTAVCIVCGEAGKEDTVEEEEGKFNLMLMECSICNEIIHPGCLKIKESEGVVNDELPNCWECPKC [L8I] | 0.099 ± 0.24
LPHTAVCKVCGEAGKEDTVEEEEGKFNLMLMECSICNEIIHPGCLKIKESEGVVNDELPNCWECPKC [L8K] | 0.146 ± 0.13
LPHTAVCMVCGEAGKEDTVEEEEGKFNLMLMECSICNEIIHPGCLKIKESEGVVNDELPNCWECPKC [L8M] | 0.172 ± 0.29
LPHTAVCPVCGEAGKEDTVEEEEGKFNLMLMECSICNEIIHPGCLKIKESEGVVNDELPNCWECPKC [L8P] | -0.433 ± 0.24
LPHTAVCRVCGEAGKEDTVEEEEGKFNLMLMECSICNEIIHPGCLKIKESEGVVNDELPNCWECPKC [L8R] | 0.104 ± 0.14
LPHTAVCSVCGEAGKEDTVEEEEGKFNLMLMECSICNEIIHPGCLKIKESEGVVNDELPNCWECPKC [L8S] | -0.34 ± 0.17
LPHTAVCLACGEAGKEDTVEEEEGKFNLMLMECSICNEIIHPGCLKIKESEGVVNDELPNCWECPKC [V9A] | -0.042 ± 0.099
LPHTAVCLCCGEAGKEDTVEEEEGKFNLMLMECSICNEIIHPGCLKIKESEGVVNDELPNCWECPKC [V9C] | -0.817 ± 0.26
LPHTAVCLDCGEAGKEDTVEEEEGKFNLMLMECSICNEIIHPGCLKIKESEGVVNDELPNCWECPKC [V9D] | -0.287 ± 0.084
LPHTAVCLECGEAGKEDTVEEEEGKFNLMLMECSICNEIIHPGCLKIKESEGVVNDELPNCWECPKC [V9E] | -0.053 ± 0.15
LPHTAVCLFCGEAGKEDTVEEEEGKFNLMLMECSICNEIIHPGCLKIKESEGVVNDELPNCWECPKC [V9F] | -0.257 ± 0.24
LPHTAVCLGCGEAGKEDTVEEEEGKFNLMLMECSICNEIIHPGCLKIKESEGVVNDELPNCWECPKC [V9G] | -0.273 ± 0.1
LPHTAVCLICGEAGKEDTVEEEEGKFNLMLMECSICNEIIHPGCLKIKESEGVVNDELPNCWECPKC [V9I] | 0.226 ± 0.081
LPHTAVCLKCGEAGKEDTVEEEEGKFNLMLMECSICNEIIHPGCLKIKESEGVVNDELPNCWECPKC [V9K] | 0.088 ± 0.085
LPHTAVCLLCGEAGKEDTVEEEEGKFNLMLMECSICNEIIHPGCLKIKESEGVVNDELPNCWECPKC [V9L] | -0.126 ± 0.083
LPHTAVCLMCGEAGKEDTVEEEEGKFNLMLMECSICNEIIHPGCLKIKESEGVVNDELPNCWECPKC [V9M] | -0.049 ± 0.12
LPHTAVCLNCGEAGKEDTVEEEEGKFNLMLMECSICNEIIHPGCLKIKESEGVVNDELPNCWECPKC [V9N] | 0.239 ± 0.3
LPHTAVCLPCGEAGKEDTVEEEEGKFNLMLMECSICNEIIHPGCLKIKESEGVVNDELPNCWECPKC [V9P] | -0.707 ± 0.14
LPHTAVCLQCGEAGKEDTVEEEEGKFNLMLMECSICNEIIHPGCLKIKESEGVVNDELPNCWECPKC [V9Q] | -0.635 ± 0.27
LPHTAVCLRCGEAGKEDTVEEEEGKFNLMLMECSICNEIIHPGCLKIKESEGVVNDELPNCWECPKC [V9R] | -0.297 ± 0.1
LPHTAVCLSCGEAGKEDTVEEEEGKFNLMLMECSICNEIIHPGCLKIKESEGVVNDELPNCWECPKC [V9S] | -0.1 ± 0.12
LPHTAVCLTCGEAGKEDTVEEEEGKFNLMLMECSICNEIIHPGCLKIKESEGVVNDELPNCWECPKC [V9T] | 0.127 ± 0.1
